This note sets out measurements from paper PMC11574045, “A cofactor-induced repressive type of transcription factor condensation can be induced by synthetic peptides to suppress tumorigenesis” (The EMBO Journal, 2024).

B1: TRP63 (protein, UniProt Q9H3D4 1-680, looked up)
Tumor protein 63: MNFETSRCATLQYCPDPYIQRFVETPAHFSWKESYYRSTMSQSTQTNEFLSPEVFQHIWDFLEQPICSVQPIDLNFVDEPSEDGATNKIEISMDCIRMQDSDLSDPMWPQYTNLGLLNSMDQQIQNGSSSTSPYNTDHAQNSVTAPSPYAQPSSTFDALSPSPAIPSNTDYPGPHSFDVSFQQSSTAKSATWTYSTELKKLYCQIAKTCPIQIKVMTPPPQGAVIRAMPVYKKAEHVTEVVKRCPNHELSREFNEGQIAPPSHLIRVEGNSHAQYVEDPITGRQSVLVPYEPPQVGTEFTTVLYNFMCNSSCVGGMNRRPILIIVTLETRDGQVLGRRCFEARICACPGRDRKADEDSIRKQQVSDSTKNGDGTKRPFRQNTHGIQMTSIKKRRSPDDELLYLPVRGRETYEMLLKIKESLELMQYLPQHTIETYRQQQQQQHQHLLQKQTSIQSPSSYGNSSPPLNKMNSMNKLPSVSQLINPQQRNALTPTTIPDGMGANIPMMGTHMPMAGDMNGLSPTQALPPPLSMPSTSHCTPPPPYPTDCSIVSFLARLGCSSCLDYFTTQGLTTIYQIEHYSMDDLASLKIPEQFRHAIWKGILDHRQLHEFSSPSHLLRTPSSASTVSVGSSETRGERVIDAVRFTLRQTISFPPRDEWNDFNFDMDARRNKQQRIKEEGE
B2: BNC2 (protein, UniProt Q6ZN30 1-1099, looked up)
Zinc finger protein …: MAHLGPTPPPHSLNYKSEDRLSEQDWPAYFKVPCCGVDTSQIESEEAEVDVRERETQRDREPKRARDLTLRDSCTDNSMQFGTRTTTAEPGFMGTWQNADTNLLFRMSQQAIRCTLVNCTCECFQPGKINLRTCDQCKHGWVAHALDKLSTQHLYHPTQVEIVQSNVVFDISSLMLYGTQAVPVRLKILLDRLFSVLKQEEVLHILHGLGWTLRDYVRGYILQDAAGKVLDRWAIMSREEEIITLQQFLRFGETKSIVELMAIQEKEGQAVAVPSSKTDSDIRTFIESNNRTRSPSLLAHLENSNPSSIHHFENIPNSLAFLLPFQYINPVSAPLLGLPPNGLLLEQPGLRLREPSLSTQNEYNESSESEVSPTPYKNDQTPNRNALTSITNVEPKTEPACVSPIQNSAPVSDLTKTEHPKSSFRIHRMRRMGSASRKGRVFCNACGKTFYDKGTLKIHYNAVHLKIKHRCTIEGCNMVFSSLRSRNRHSANPNPRLHMPMLRNNRDKDLIRATSGAATPVIASTKSNLALTSPGRPPMGFTTPPLDPVLQNPLPSQLVFSGLKTVQPVPPFYRSLLTPGEMVSPPTSLPTSPIIPTSGTIEQHPPPPSEPVVPAVMMATHEPSADLAPKKKPRKSSMPVKIEKEIIDTADEFDDEDDDPNDGGAVVNDMSHDNHCHSQEEMSPGMSVKDFSKHNRTRCISRTEIRRADSMTSEDQEPERDYENESESSEPKLGEESMEGDEHIHSEVSEKVLMNSERPDENHSEPSHQDVIKVKEEFTDPTYDMFYMSQYGLYNGGGASMAALHESFTSSLNYGSPQKFSPEGDLCSSPDPKICYVCKKSFKSSYSVKLHYRNVHLKEMHVCTVAGCNAAFPSRRSRDRHSANINLHRKLLTKELDDMGLDSSQPSLSKDLRDEFLVKIYGAQHPMGLDVREDASSPAGTEDSHLNGYGRGMAEDYMVLDLSTTSSLQSSSSIHSSRESDAGSDEGILLDDIDGASDSGESAHKAEAPALPGSLGAEVSGSLMFSSLSGSNGGIMCNICHKMYSNKGTLRVHYKTVHLREMHKCKVPGCNMMFSSVRSRNRHSQNPNLHKNIPFTSVD
B3: TRIB3 (protein, UniProt Q96RU7 1-358, looked up)
Tribbles homolog 3: MRATPLAAPAGSLSRKKRLELDDNLDTERPVQKRARSGPQPRLPPCLLPLSPPTAPDRATAVATASRLGPYVLLEPEEGGRAYQALHCPTGTEYTCKVYPVQEALAVLEPYARLPPHKHVARPTEVLAGTQLLYAFFTRTHGDMHSLVRSRHRIPEPEAAVLFRQMATALAHCHQHGLVLRDLKLCRFVFADRERKKLVLENLEDSCVLTGPDDSLWDKHACPAYVGPEILSSRASYSGKAADVWSLGVALFTMLAGHYPFQDSEPVLLFGKIRRGAYALPAGLSAPARCLVRCLLRREPAERLTATGILLHPWLRQDPMPLAPTRSHLWEAAQVVPDGLGLDEAREEEGDREVVLYG
B4: TRIP4 (protein, UniProt Q15650 2-581, looked up)
Activating signal …: AVAGAVSGEPLVHWCTQQLRKTFGLDVSEEIIQYVLSIESAEEIREYVTDLLQGNEGKKGQFIEELITKWQKNDQELISDPLQQCFKKDEILDGQKSGDHLKRGRKKGRNRQEVPAFTEPDTTAEVKTPFDLAKAQENSNSVKKKTKFVNLYTREGQDRLAVLLPGRHPCDCLGQKHKLINNCLICGRIVCEQEGSGPCLFCGTLVCTHEEQDILQRDSNKSQKLLKKLMSGVENSGKVDISTKDLLPHQELRIKSGLEKAIKHKDKLLEFDRTSIRRTQVIDDESDYFASDSNQWLSKLERETLQKREEELRELRHASRLSKKVTIDFAGRKILEEENSLAEYHSRLDETIQAIANGTLNQPLTKLDRSSEEPLGVLVNPNMYQSPPQWVDHTGAASQKKAFRSSGFGLEFNSFQHQLRIQDQEFQEGFDGGWCLSVHQPWASLLVRGIKRVEGRSWYTPHRGRLWIAATAKKPSPQEVSELQATYRLLRGKDVEFPNDYPSGCLLGCVDLIDCLSQKQFKEQFPDISQESDSPFVFICKNPQEMVVKFPIKGNPKIWKLDSKIHQGAKKGLMKQNKAV
B5: TRERF1 (protein, UniProt Q96PN7 1-1200, looked up)
Transcriptional-regulating …: MGDQQLYKTNHVAHGSENLFYQQPPLGVHSGLNHNYGNAVTGGGMDAPQASPISPHFPQDTRDGLGLPVGSKNLGQMDTSRQGGWGSHAGPGNHVQLRGNLANSNMMWGAPAQAEPTDGYQYTYSQASEIRTQKLTSGVLHKLDSFTQVFANQNLRIQVNNMAQVLHTQSAVMDGAPDSALRQLLSQKPMEPPAPAIPSRYQQVPQQPHPGFTGGLSKPALQVGQHPTQGHLYYDYQQPLAQVPVQGGQPLQAPQMLSQHMQQMQQHQYYPPQQQQQAGQQRISMQEIQTQPQQIRPSQPQPPPQQQQPQQLQLQQRQGSMQIPQYYQPQPMMQHLQEQQQQQMHLQPPSYHRDPHQYTPEQAHTVQLIPLGSMSQYYYQEPQQPYSHPLYQQSHLSQHQQREDSQLKTYSSDRQAQAMLSSHGDLGPPDTGMGDPASSDLTRVSSTLPHRPLLSPSGIHLNNMGPQHQQLSPSAMWPQMHLPDGRAQPGSPESSGQPKGAFGEQFDAKNKLTCSICLKEFKNLPALNGHMRSHGGMRASPNLKQEEGEKVLPPQPQPPLPPPPPPPPPPQLPPEAESLTPMVMPVSVPVKLLPPKPSSQGFTNSTVAAPSARDKPASSMSDDEMPVLEIPRKHQPSVPKAEEPLKTVQEKKKFRHRPEPLFIPPPPSYNPNPAASYSGATLYQSQLRSPRVLGDHLLLDPTHELPPYTPPPMLSPVRQGSGLFSNVLISGHGPGAHPQLPLTPLTPTPRVLLCRSNSIDGSNVTVTPGPGEQTVDVEPRINIGLRFQAEIPELQDISALAQDTHKATLVWKPWPELENHDLQQRVENLLNLCCSSALPGGGTNSEFALHSLFEAKGDVMVALEMLLLRKPVRLKCHPLANYHYAGSDKWTSLERKLFNKALATYSKDFIFVQKMVKSKTVAQCVEYYYTWKKIMRLGRKHRTRLAEIIDDCVTSEEEEELEEEEEEDPEEDRKSTKEEESEVPKSPEPPPVPVLAPTEGPPLQALGQPSGSFICEMPNCGAVFSSRQALNGHARIHGGTNQVTKARGAIPSGKQKPGGTQSGYCSVKSSPSHSTTSGETDPTTIFPCKECGKVFFKIKSRNAHMKTHRQQEEQQRQKAQKAAFAAEMAATIERTTGPVGAPGLLPLDQLSLIKPIKDVDILDDDVVQQLGGVMEEAEVVDTDLLLDDQDSVLLQGDAEL
B6: TRIM32 (protein, UniProt Q8CH72 1-655, looked up)
E3 ubiquitin-protein ligase …: MAAAAAASHLNLDALREVLECPICMESFTEEQLRPKLLHCGHTICRQCLEKLLASSINGVRCPFCSKITRITSLTQLTDNLTVLKIIDTAGLSEAVGLLMCRGCGRRLPRQFCRSCGVVLCEPCREADHQPPGHCTLPVKEAAEERRRDFGEKLTRLRELTGELQRRKAALEGVSRDLQARYKAVLQEYGHEERRIQEELARSRKFFTGSLAEVEKSNSQVVEEQSYLLNIAEVQAVSRCDYFLAKIKQADVALLEETADEEEPELTASLPRELTLQDVELLKVGHVGPLQIGQAVKKPRTVNMEDSWAGEEGAASSASASVTFREMDMSPEEVAPSPRASPAKQRSSEAASGIQQCLFLKKMGAKGSTPGMFNLPVSLYVTSQSEVLVADRGNYRIQVFNRKGFLKEIRRSPSGIDSFVLSFLGADLPNLTPLSVAMNCHGLIGVTDSYDNSLKVYTMDGHCVACHRSQLSKPWGITALPSGQFVVTDVEGGKLWCFTVDRGAGVVKYSCLCSAVRPKFVTCDAEGTVYFTQGLGLNVENRQNEHHLEGGFSIGSVGPDGQLGRQISHFFSENEDFRCIAGMCVDARGDLIVADSSRKEILHFPKGGGYSVLIREGLTCPVGIALTPKGQLLVLDCWDHCVKIYSYHLRRYSTP
B7: TOX2 (protein, UniProt Q96NM4 1-488, looked up)
TOX high mobility group box …: MQQTRTEAVAGAFSRCLGFCGMRLGLLLLARHWCIAGVFPQKFDGDSAYVGMSDGNPELLSTSQTYNGQSENNEDYEIPPITPPNLPEPSLLHLGDHEASYHSLCHGLTPNGLLPAYSYQAMDLPAIMVSNMLAQDSHLLSGQLPTIQEMVHSEVAAYDSGRPGPLLGRPAMLASHMSALSQSQLISQMGIRSSIAHSSPSPPGSKSATPSPSSSTQEEESEVHFKISGEKRPSADPGKKAKNPKKKKKKDPNEPQKPVSAYALFFRDTQAAIKGQNPSATFGDVSKIVASMWDSLGEEQKQSSPDQGETKSTQANPPAKMLPPKQPMYAMPGLASFLTPSDLQAFRSGASPASLARTLGSKSLLPGLSASPPPPPSFPLSPTLHQQLSLPPHAQGALLSPPVSMSPAPQPPVLPTPMALQVQLAMSPSPPGPQDFPHISEFPSSSGSCSPGPSNPTSSGDWDSSYPSGECGISTCSLLPRDKSLYLT

This experiment deals with HEK293FT cells transfected with TF library. As to the kind of experiment: Screening of TF condensates based on fluorescent puncta. It is filed as cell-based. Conditions: Figure 1B numerical data; TF library screen, one value per transcriptional factor. An outline of the steps:
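HEK293FT cells were reverse-transfected with Flag- or GAL4-tagged TF plasmids (1.6 μg/ml, PEI). After 60 h, cells were cultured 12 h with or without glucose, then fixed and immunostained with anti-Flag or anti-GAL4 and Alexa 488 secondaries. Fluorescent puncta were imaged over fifty random fields per well by high-content imaging.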
On to B1, for which the “Z score of condensed fraction” value is recorded as -0.7687.

As to B2, the “Z score of condensed fraction” value is listed as -0.9038.

Consider B3, for which the “Z score of condensed fraction” value was -0.9785.

Consider B4, for which the “Z score of condensed fraction” value is reported as 0.1966.

Regarding B5, the “Z score of condensed fraction” value was -0.901.

As to B6, the “Z score of condensed fraction” value is reported as -0.9694.

For the molecule B7, the “Z score of condensed fraction” value amounted to 2.501.
